PMC8809517, “Cofactor-independent RNA editing by a synthetic S-type PPR protein”

T1: GFP-9S library array, motif 4 ND N98K;D124S (synthetic construct, N98K;D124S)
T1 chain: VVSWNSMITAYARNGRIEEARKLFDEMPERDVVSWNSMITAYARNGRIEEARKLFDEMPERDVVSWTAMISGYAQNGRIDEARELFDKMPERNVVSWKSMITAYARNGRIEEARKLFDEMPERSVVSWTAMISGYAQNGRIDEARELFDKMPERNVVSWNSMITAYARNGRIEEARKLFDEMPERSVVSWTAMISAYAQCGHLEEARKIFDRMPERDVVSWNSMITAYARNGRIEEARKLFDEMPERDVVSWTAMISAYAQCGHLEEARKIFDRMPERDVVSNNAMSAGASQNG

T2: GFP-9S library array, motif 4 ND N98Y;D124H (synthetic construct, N98Y;D124H)
T2 chain: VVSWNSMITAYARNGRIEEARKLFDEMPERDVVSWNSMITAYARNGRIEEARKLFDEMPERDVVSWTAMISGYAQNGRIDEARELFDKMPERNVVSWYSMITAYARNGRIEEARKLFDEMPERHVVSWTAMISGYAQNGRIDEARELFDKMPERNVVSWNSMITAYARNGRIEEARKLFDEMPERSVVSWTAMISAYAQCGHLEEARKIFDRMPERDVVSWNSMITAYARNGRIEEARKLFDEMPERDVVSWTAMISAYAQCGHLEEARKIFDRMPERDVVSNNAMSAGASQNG

T3: GFP-9S library array, motif 4 ND N98T;D124S (synthetic construct, N98T;D124S)
T3 chain: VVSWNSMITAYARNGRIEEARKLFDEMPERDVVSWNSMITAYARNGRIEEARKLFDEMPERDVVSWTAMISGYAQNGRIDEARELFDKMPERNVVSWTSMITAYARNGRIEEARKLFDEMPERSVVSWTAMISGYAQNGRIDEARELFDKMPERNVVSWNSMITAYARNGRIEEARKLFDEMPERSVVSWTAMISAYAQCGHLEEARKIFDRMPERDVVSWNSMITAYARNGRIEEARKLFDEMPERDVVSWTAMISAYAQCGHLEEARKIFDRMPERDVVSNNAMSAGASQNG

T4: GFP-9S library array, motif 4 ND N98F;D124K (synthetic construct, N98F;D124K)
T4 chain: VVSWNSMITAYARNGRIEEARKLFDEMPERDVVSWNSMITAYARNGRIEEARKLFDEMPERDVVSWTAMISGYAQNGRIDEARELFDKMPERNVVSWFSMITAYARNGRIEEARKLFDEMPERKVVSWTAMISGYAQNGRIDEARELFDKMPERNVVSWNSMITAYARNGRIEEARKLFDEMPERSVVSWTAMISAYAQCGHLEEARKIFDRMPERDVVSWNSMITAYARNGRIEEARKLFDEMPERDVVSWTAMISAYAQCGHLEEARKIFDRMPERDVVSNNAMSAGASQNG

T5: GFP-9S library array, motif 4 ND N98V;D124L (synthetic construct, N98V;D124L)
T5 chain: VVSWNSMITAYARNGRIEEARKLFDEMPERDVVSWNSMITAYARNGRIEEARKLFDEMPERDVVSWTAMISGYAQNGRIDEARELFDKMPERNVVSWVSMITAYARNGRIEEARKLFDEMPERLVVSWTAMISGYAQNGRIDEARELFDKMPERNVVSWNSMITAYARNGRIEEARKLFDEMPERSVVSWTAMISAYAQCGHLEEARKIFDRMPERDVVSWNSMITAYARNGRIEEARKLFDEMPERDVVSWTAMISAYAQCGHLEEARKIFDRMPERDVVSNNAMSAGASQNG


What was measured:
Test in all cases: high-throughput RNA pulldown from lysate on Ni-NTA beads; HRP: 50 mM Tris pH 8, 150 mM NaCl, 1 mM beta-mercaptoethanol, 50 ug/ml BSA, 3 ug/ml yeast RNA, 0.5% heparin; ITC and FP: Tris pH 8, 200 mM KCl, 5% glycerol; MST: 50 mM Tris pH 8, 200 mM NaCl, 1 mM DTT, BSA, heparin, 0.05% Tween 20
Settings in all cases: tags: N-terminal His-eGFP
[1] = biological target: T1, GFP-9S library array, motif 4 ND …
[2] = biological target: T2, GFP-9S library array, motif 4 ND …
[3] = biological target: T3, GFP-9S library array, motif 4 ND …
[4] = biological target: T4, GFP-9S library array, motif 4 ND …
[5] = biological target: T5, GFP-9S library array, motif 4 ND …

Binder | Kd ([1]; label: 5' Cy5) [nM] | Kd ([2]; label: 5' Cy5) [nM] | Kd ([3]; label: 5' Cy5) [nM] | Kd ([4]; label: 5' Cy5) [nM] | Kd ([5]; label: 5' Cy5) [nM] | Kd ([1]; label: 5' IRDye 800CW) [nM] | Kd ([2]; label: 5' IRDye 800CW) [nM] | Kd ([3]; label: 5' IRDye 800CW) [nM] | Kd ([4]; label: 5' IRDye 800CW) [nM] | Kd ([5]; label: 5' IRDye 800CW) [nM]
AUUACACGUGA (ssRNA) [Cy5-rpoA] | 67.8 | 5.06 | 37 | 160 | 88.5 | – | – | – | – | –
AUUAGACGUGA (ssRNA) [Cy5-rpoA-G] | 89.3 | 46 | 65.5 | 63.6 | 112 | – | – | – | – | –
AUUAAACGUGA (ssRNA) [IR-rpoA-A] | – | – | – | – | – | 120 | 111 | 18.4 | 121 | 199
AUUAUACGUGA (ssRNA) [IR-rpoA-U] | – | – | – | – | – | 40.8 | 169 | 48.8 | 667 | 126
